Assay results: IntAct's records for PubMed 11042109

B1: Protein TMEPAI (Mus musculus), Q9D7R2 (parent)
chain: MSPARATAQRSLFPSMEITELEFVQIVVIVVVMMVMVVMITCLLSHYKLSARSFISRHSQARRRDDGLSSEGCLWPSESTVSGGMPEPQVYAPPRPTDRLAVPPFIQRSRFQPTYPYLQHEIALPPTISLSDGEEPPPYQGPCTLQLRDPEQQLELNRESVRAPPNRTIFDSDLIDSTMLGGPCPPSSNSGISATCYSSGGRMEGPPPTYSEVIGHYPGSSFQHQQSNGPSSLLEGTRLHHSHIAPLENKEKEKQKGHPL
B2: RING finger protein 11 (Mus musculus), Q9QYK7 (parent)
chain: MGNCLKSPTSDDISLLHESQSDRASFGEGTEPDQEPPPPYQEQVPVPIYHPTPSQTRLATQLTEEEQIRIAQRIGLIQHLPKGVYDPGRDGSEKKIRECVICMMDFVYGDPIRFLPCMHIYHLDCIDDWLMRSFTCPSCMEPVDAALLSSYETN
B3: Lipopolysaccharide-induced tumor necrosis factor-alpha factor homolog (Mus musculus), Q9JLJ0 (parent)
chain: MSAPGPYQAAAGPSVVPTAPPTYEETVGVNSYYPTPPAPMPGPATGLITGPDGKGMNPPSYYTQPVPVPNANAIAVQTVYVQQPVSFYDRPVQMCCPSCSKMIVTQLSYNAGALTWLSCGSLCLLGCVAGCCFIPFCVDALQDVDHYCPNCKALLGTYKRL
B4: NEDD4 family-interacting protein 1 (Mus musculus), Q8R0W6 (parent)
chain: MALALAALAAVEPACGSGYQQLQNEEEPGEPEQTAGDAPPPYSSITAESAAYFDYKDESGFPKPPSYNVATTLPSYDEAERTKTEATIPLVPGRDEDFVGRDDFDDTDQLRIGNDGIFMLTFFMAFLFNWIGFFLSFCLTTSAAGRYGAISGFGLSLIKWILIVRFSTYFPGYFDGQYWLWWVFLVLGFLLFLRGFINYAKVRKMPETFSNLPRTRVLFIY

Variants of: B1
Conditions: with nedd4_mouse Nedd4, P46935
Target sequence in this assay (P46935 whole entry): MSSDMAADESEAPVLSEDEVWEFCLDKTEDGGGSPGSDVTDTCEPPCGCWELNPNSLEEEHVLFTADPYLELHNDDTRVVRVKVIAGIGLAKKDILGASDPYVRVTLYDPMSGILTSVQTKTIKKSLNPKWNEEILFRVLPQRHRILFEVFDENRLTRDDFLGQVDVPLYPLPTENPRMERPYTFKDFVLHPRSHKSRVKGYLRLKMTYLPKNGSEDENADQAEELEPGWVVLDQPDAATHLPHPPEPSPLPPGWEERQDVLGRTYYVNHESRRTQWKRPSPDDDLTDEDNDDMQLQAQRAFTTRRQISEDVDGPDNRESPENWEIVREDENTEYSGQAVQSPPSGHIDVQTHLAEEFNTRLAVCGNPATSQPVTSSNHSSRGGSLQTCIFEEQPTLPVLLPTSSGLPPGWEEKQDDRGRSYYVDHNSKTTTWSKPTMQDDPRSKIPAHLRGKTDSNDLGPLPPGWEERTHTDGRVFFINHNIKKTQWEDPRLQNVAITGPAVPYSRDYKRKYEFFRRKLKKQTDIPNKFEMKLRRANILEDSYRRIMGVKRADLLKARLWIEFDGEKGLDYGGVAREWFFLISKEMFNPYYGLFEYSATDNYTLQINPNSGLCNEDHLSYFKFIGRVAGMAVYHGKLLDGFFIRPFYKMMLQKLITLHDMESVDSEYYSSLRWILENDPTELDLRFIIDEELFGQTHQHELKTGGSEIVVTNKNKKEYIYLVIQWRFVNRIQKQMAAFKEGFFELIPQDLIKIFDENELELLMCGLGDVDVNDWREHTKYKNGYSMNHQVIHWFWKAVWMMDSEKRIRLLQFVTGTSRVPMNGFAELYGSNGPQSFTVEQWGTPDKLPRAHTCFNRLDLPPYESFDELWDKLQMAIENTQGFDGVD

effect of a mutation on the interaction	Variant
decreasing interaction strength	MSPARATAQRSLFPSMEITELEFVQIVVIVVVMMVMVVMITCLLSHYKLSARSFISRHSQARRRDDGLSSEGCLWPSESTVSGGMPEPQVYAPPRPTDRLAVPPFIQRSRFQPTYPYLQHEIALPPTISLSDGEEPPPAQGPCTLQLRDPEQQLELNRESVRAPPNRTIFDSDLIDSTMLGGPCPPSSNSGISATCYSSGGRMEGPPPTYSEVIGHYPGSSFQHQQSNGPSSLLEGTRLHHSHIAPLENKEKEKQKGHPL [Y139A]

Variants of: B1
Conditions: with nedd4_mouse Nedd4, P46935
Remark: another data set of the same source
Target sequence in this assay (P46935 whole entry): as the sequence (P46935 whole entry) above

effect of a mutation on the interaction	Variant
disrupting interaction strength	MSPARATAQRSLFPSMEITELEFVQIVVIVVVMMVMVVMITCLLSHYKLSARSFISRHSQARRRDDGLSSEGCLWPSESTVSGGMPEPQVYAPPRPTDRLAVPPFIQRSRFQPTYPYLQHEIALPPTISLSDGEEPPPYQGPCTLQLRDPEQQLELNRESVRAPPNRTIFDSDLIDSTMLGGPCPPSSNSGISATCYSSGGRMEGPPPTASEVIGHYPGSSFQHQQSNGPSSLLEGTRLHHSHIAPLENKEKEKQKGHPL [Y210A]

Variants of: B1
Conditions: with nedd4_mouse Nedd4, P46935
Remark: another data set of the same source
Target sequence in this assay (P46935 whole entry): as the sequence (P46935 whole entry) above

effect of a mutation on the interaction	Variant
disrupting interaction strength	MSPARATAQRSLFPSMEITELEFVQIVVIVVVMMVMVVMITCLLSHYKLSARSFISRHSQARRRDDGLSSEGCLWPSESTVSGGMPEPQVYAPPRPTDRLAVPPFIQRSRFQPTYPYLQHEIALPPTISLSDGEEPPPYQGPCTLQLRDPEQQLELNRESVRAPPNRTIFDSDLIDSTMLGGPCPPSSNSGISATCYSSGGRMEGPPPTASEVIGHYPGSSFQHQQSNGPSSLLEGTRLHHSHIAPLENKEKEKQKGHPL [Y210A]

Variants of: B2
Conditions: with nedd4_mouse Nedd4, P46935
Target sequence in this assay (P46935 whole entry): as the sequence (P46935 whole entry) above

effect of a mutation on the interaction	Variant
disrupting interaction	MGNCLKSPTSDDISLLHESQSDRASFGEGTEPDQEPPPPAQEQVPVPIYHPTPSQTRLATQLTEEEQIRIAQRIGLIQHLPKGVYDPGRDGSEKKIRECVICMMDFVYGDPIRFLPCMHIYHLDCIDDWLMRSFTCPSCMEPVDAALLSSYETN [Y40A]

Variants of: B2
Conditions: with nedd4_mouse Nedd4, P46935
Remark: another data set of the same source
Target sequence in this assay (P46935 whole entry): as the sequence (P46935 whole entry) above

effect of a mutation on the interaction	Variant
disrupting interaction strength	MGNCLKSPTSDDISLLHESQSDRASFGEGTEPDQEPPPPAQEQVPVPIYHPTPSQTRLATQLTEEEQIRIAQRIGLIQHLPKGVYDPGRDGSEKKIRECVICMMDFVYGDPIRFLPCMHIYHLDCIDDWLMRSFTCPSCMEPVDAALLSSYETN [Y40A]

Variants of: B3
Conditions: with nedd4_mouse Nedd4, P46935
Target sequence in this assay (P46935 whole entry): as the sequence (P46935 whole entry) above

effect of a mutation on the interaction	Variant
disrupting interaction strength	Y23A

Variants of: B4
Conditions: with nedd4_mouse Nedd4, P46935

effect of a mutation on the interaction	Variant
decreasing interaction strength	MALALAALAAVEPACGSGYQQLQNEEEPGEPEQTAGDAPPPASSITAESAAYFDYKDESGFPKPPSYNVATTLPSYDEAERTKTEATIPLVPGRDEDFVGRDDFDDTDQLRIGNDGIFMLTFFMAFLFNWIGFFLSFCLTTSAAGRYGAISGFGLSLIKWILIVRFSTYFPGYFDGQYWLWWVFLVLGFLLFLRGFINYAKVRKMPETFSNLPRTRVLFIY [Y42A]
